# Measured values taken from patent publication US20180355059A1 (PHARMAEXPLORER, published 2018).
# Where a chain is given by its changes, count along the chain named.
# B1: 139G1C5, fully human anti-PCSK9 antibody (antibody, human IgG1, V domains shown)
# VH: QVQLQESGPGLVKPSGTLSLTCAVSGGSISRNNWWSWVRQPPGKGLEWIGEIYHSGSTNYNPSLKSRVTISVDKSKNQFSLKLSSVTAADTAVYYCARDLLGIGLDYWGQGTLVTVSS
# VL: EFVLTQSPATLSLSPGERAILSCRASQSFSSYIAWYQQKPGQAPRLLIYDASNRATGIPARFSGSGSGTDFTLTISSLEPEDFAVYYCQQHSNWMYTFGQGTKLEIK
# B2: 152G2F7, fully human anti-PCSK9 antibody (antibody, human IgG1, V domains shown)
# VH: EVQLVESGGGLVQPGGSLRLSCAASEFTFGGYWMTWVRQAPGKGLEWVANIKQDGSEKYYVDSVKGRFTISRDNAKNSLYLHMNSLRAEDTAVYYCARDRTTMIRGVSLYYYYYGMDVWGQGTAVTVSS
# VL: B1 VL with F2I, I20T, F29V, I33L, H91R, M95P, Y96L, Q100G, L104V
# B3: 74C10A8, fully human anti-PCSK9 antibody (antibody, human IgG1, V domains shown)
# VH: QVQLQESGPGLVKPSETLSLTCSVSGGSINTYYWSWIRQPPGKGLEWIGYIYYSGSTNYNPSLKSRVTISVDTSKNQFSLKLTSVTAADTAVYYCARERFTMVRGVMMDYYYYGMDVWGQGTTVTVSS
# VL: DIQLTQSPSFLSASVGDRVTITCRASQGISSYLAWYQQKPGKAPKLLIYAASTLQSGVPSRFSGSGSGTEFTLTISSLQPEDFATYYCQQLNSYPRTFGQGTKVEIK
# B4: 96F8C6, fully human anti-PCSK9 antibody (antibody, human IgG1, V domains shown)
# VH: EVQLVESGGGLVQPGGSLRLSCAASGITFSSYWMSWVRQAPGKGLEWVANIKQDGSEKYYVDSVKGRFTISRDIAKNSLYLQMNSLRAEDTAVYYCARDRGTYYYGSGSYNYYYYGMDVWGQGTTVTVSS
# VL: not shown
# notes: also called 98F8C6
# Molecular target: T1, recombinant human PCSK9-His protein (Immunogen A) (human, UniProt Q8NBP7 31-692, limits assumed, biotinylated in the ELISA assays)
# T1 construct: also called hPCSK9-His; His-tagged hPCSK9; not shown: His tag
# Assay: ELISA; antibody 0.067 nM
row,OD450 nm [OD450 nm],Binder
1,1.7,B1
2,0.94,B2
3,1.52,B3
4,1.65,B4

# Molecular target: T1, recombinant human PCSK9-His protein …
# Assay: ELISA of PCSK9 binding to LDLR ECD; antibody 0 nM
row,OD450 nm [OD450 nm],Binder
1,2.31,B1
2,2.29,B2
3,2.4,B3
4,2.4,B4

# Molecular target: T1, recombinant human PCSK9-His protein …
# Assay: BLI, Octet Red 96; antibody on AHC sensor
# Method: Dissociation constants were determined by Octed red 96 (Fortiebio). The detailed operation and methods were followed according to the specifications of the instrument provided by the manufacturer. Briefly, an AHC sensor (Anti-human Fc sensor, Fortiebio) was used for the affinity determination. The anti-PCSK9 antibody was diluted to 10 ug/mL in PBS buffer (pH7.4) containing 0.1% (w/w) BSA and 0.02% (v/v) Tween 20 and incubated with the AHC sensor. […] The reaction mixture was further incubated in PBS buffer (pH7.4) containing 0.1% (v/w) BSA and 0.02% (v/v) Tween 20 at 30° C. for 5 minutes.
Kd [nM],koff [s⁻¹],kon [M⁻¹ s⁻¹],Binder
0.63,0.000161,254000,B1
2.69,0.000453,168000,B2
14.5,–,–,B3
3.63,–,–,B4

# Molecular target: T1, recombinant human PCSK9-His protein …
# Assay: ELISA of PCSK9 binding to LDLR ECD; antibody 40 nM
row,OD450 nm [OD450 nm],Binder
1,1.35,B1
2,1.31,B2
3,1.43,B3
4,2.38,B4

# Molecular target: T2, recombinant cyno monkey PCSK9 protein (cyno monkey, UniProt A8T666 31-692 (rhesus entry), limits assumed, biotinylated in the ELISA assays)
# T2 construct: also called cyno PCSK9; Cyno Monkey PCSK9-His
# T2 sequence (A8T666 31-692 limits assumed): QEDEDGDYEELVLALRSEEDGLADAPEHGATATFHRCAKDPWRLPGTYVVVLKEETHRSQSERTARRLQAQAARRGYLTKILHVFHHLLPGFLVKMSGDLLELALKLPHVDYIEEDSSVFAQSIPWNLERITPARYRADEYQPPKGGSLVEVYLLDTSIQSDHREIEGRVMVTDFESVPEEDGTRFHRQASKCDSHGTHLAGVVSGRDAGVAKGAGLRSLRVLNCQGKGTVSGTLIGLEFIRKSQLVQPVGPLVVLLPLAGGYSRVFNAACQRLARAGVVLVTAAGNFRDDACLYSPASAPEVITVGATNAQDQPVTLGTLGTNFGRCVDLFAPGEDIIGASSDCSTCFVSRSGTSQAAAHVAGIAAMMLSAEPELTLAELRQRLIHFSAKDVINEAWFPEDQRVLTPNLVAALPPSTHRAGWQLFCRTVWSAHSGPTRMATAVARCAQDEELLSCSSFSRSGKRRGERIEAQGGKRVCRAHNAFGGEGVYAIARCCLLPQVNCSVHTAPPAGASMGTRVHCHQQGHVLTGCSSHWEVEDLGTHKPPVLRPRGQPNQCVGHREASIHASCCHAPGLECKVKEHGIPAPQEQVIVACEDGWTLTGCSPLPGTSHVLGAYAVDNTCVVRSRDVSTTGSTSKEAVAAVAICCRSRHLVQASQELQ
# Assay: ELISA; antibody 0.67 nM
row,OD450 nm [OD450 nm],Binder
1,3,B1
2,1.56,B2
3,2.1,B3
4,2.99,B4

# Molecular target: T1, recombinant human PCSK9-His protein …
# Assay: ELISA of PCSK9 binding to LDLR ECD; antibody 0.32 nM
row,OD450 nm [OD450 nm],Binder
1,2.28,B1
2,2.31,B2
3,2.32,B3
4,2.45,B4

# Molecular target: T2, recombinant cyno monkey PCSK9 protein
# Assay: ELISA; antibody 6.67 nM
row,OD450 nm [OD450 nm],Binder
1,3.01,B1
2,2.89,B2
3,2.73,B3
4,3,B4

# Molecular target: T2, recombinant cyno monkey PCSK9 protein
# Assay: ELISA; antibody 0.067 nM
row,OD450 nm [OD450 nm],Binder
1,1.84,B1
2,0.26,B2
3,0.48,B3
4,1.86,B4

# Molecular target: T1, recombinant human PCSK9-His protein …
# Assay: ELISA; antibody 0 nM
row,OD450 nm [OD450 nm],Binder
1,0.06,B1
2,0.06,B2
3,0.06,B3
4,0.06,B4

# Molecular target: T1, recombinant human PCSK9-His protein …
# Assay: ELISA of PCSK9 binding to LDLR ECD; antibody 200 nM
row,OD450 nm [OD450 nm],Binder
1,1.29,B1
2,1.32,B2
3,1.41,B3
4,2.4,B4

# Molecular target: T1, recombinant human PCSK9-His protein …
# Assay: SPR, Biacore T200; antibody captured by anti-human Fc
# Method: Anti-human Fc IgG was immobilized on flow cells 1 and 2: HBS-EP+(10 mM HEPES, 150 mM NaCl, 3 mM EDTA, 0.05% P20, pH 7.4) was used as running buffer, and the immobilization of anti-human Fc IgG was carried out using the immobilization wizard template. Flow cells 1 and 2 of a Series S CM5 sensor chip were activated with freshly-mixed 50 mmol/L NHS and 200 mmol/L EDC. 20 ug/mL of anti-human Fc IgG diluted in 10 mM NaAC (pH 4.5) was injected into the activated flow cells 1 and 2. The remaining active coupling sites were blocked with 1M ethanolamine.
# KD measurements were carried out with HBS-EP+ as the running buffer. Each antibody was injected over the CM5 sensor flow cell 2 with a flow rate of 10 uL/min to reach response 230 RU. […] Buffer flow was maintained for 400 seconds for dissociation measurements (30 uL/min). To remove the tested antibody from the surface, 10 mM glycine-HCl pH 1.5 was injected for 20 seconds (30 ulJmin). Flow cell 1 was used as reference flow cell. […] The KD value for each antibody was evaluated using Biacore T200 evaluation software 1.0, and the data was fit with a 1:1 binding model.
Kd [nM],koff [s⁻¹],kon [M⁻¹ s⁻¹],Binder
0.0709,2.4e-05,240000,B1
2.33,–,–,B4

# Molecular target: T1, recombinant human PCSK9-His protein …
# Assay: ELISA; antibody 0.000067 nM
row,OD450 nm [OD450 nm],Binder
1,0.06,B1
2,0.06,B2
3,0.06,B3
4,0.06,B4

# Molecular target: T2, recombinant cyno monkey PCSK9 protein
# Assay: ELISA; antibody 0 nM
row,OD450 nm [OD450 nm],Binder
1,0.06,B1
2,0.06,B2
3,0.06,B3
4,0.06,B4

# Molecular target: T1, recombinant human PCSK9-His protein …
# Assay: ELISA of PCSK9 binding to LDLR ECD; antibody 0.06 nM
row,OD450 nm [OD450 nm],Binder
1,2.31,B1
2,2.25,B2
3,2.28,B3
4,2.43,B4

# Molecular target: T2, recombinant cyno monkey PCSK9 protein
# Assay: ELISA; antibody 0.0067 nM
row,OD450 nm [OD450 nm],Binder
1,0.29,B1
2,0.08,B2
3,0.11,B3
4,0.31,B4

# Molecular target: T1, recombinant human PCSK9-His protein …
# Assay: ELISA; antibody 66.67 nM
row,OD450 nm [OD450 nm],Binder
1,3.04,B1
2,3.07,B2
3,3.04,B3
4,3.06,B4

# Molecular target: T1, recombinant human PCSK9-His protein …
# Assay: ELISA of PCSK9 binding to LDLR ECD; antibody 0.01 nM
row,OD450 nm [OD450 nm],Binder
1,2.33,B1
2,2.27,B2
3,2.31,B3
4,2.38,B4

# Molecular target: T2, recombinant cyno monkey PCSK9 protein
# Assay: ELISA; antibody 0.00067 nM
row,OD450 nm [OD450 nm],Binder
1,0.08,B1
2,0.06,B2
3,0.06,B3
4,0.09,B4

# Molecular target: T1, recombinant human PCSK9-His protein …
# Assay: ELISA; antibody 0.0067 nM
row,OD450 nm [OD450 nm],Binder
1,0.26,B1
2,0.15,B2
3,0.23,B3
4,0.25,B4

# Molecular target: T1, recombinant human PCSK9-His protein …
# Assay: ELISA of PCSK9 binding to LDLR ECD; antibody 8 nM
row,OD450 nm [OD450 nm],Binder
1,1.57,B1
2,1.86,B2
3,1.76,B3
4,2.38,B4

# Molecular target: T1, recombinant human PCSK9-His protein …
# Assay: ELISA; antibody 6.67 nM
row,OD450 nm [OD450 nm],Binder
1,3.06,B1
2,3.12,B2
3,3.04,B3
4,3.1,B4

# Molecular target: T2, recombinant cyno monkey PCSK9 protein
# Assay: ELISA; antibody 66.67 nM
row,OD450 nm [OD450 nm],Binder
1,3,B1
2,2.97,B2
3,2.86,B3
4,2.97,B4

# Molecular target: T1, recombinant human PCSK9-His protein …
# Assay: ELISA; antibody 0.00067 nM
row,OD450 nm [OD450 nm],Binder
1,0.08,B1
2,0.07,B2
3,0.08,B3
4,0.08,B4

# Molecular target: T1, recombinant human PCSK9-His protein …
# Assay: ELISA; antibody 0.67 nM
row,OD450 nm [OD450 nm],Binder
1,3.05,B1
2,2.91,B2
3,3,B3
4,3.09,B4

# Molecular target: T2, recombinant cyno monkey PCSK9 protein
# Assay: ELISA; antibody 0.000067 nM
row,OD450 nm [OD450 nm],Binder
1,0.08,B1
2,0.07,B2
3,0.13,B3
4,0.08,B4

# Molecular target: T1, recombinant human PCSK9-His protein …
# Assay: ELISA of PCSK9 binding to LDLR ECD; antibody 1.6 nM
row,OD450 nm [OD450 nm],Binder
1,2.16,B1
2,2.19,B2
3,2.19,B3
4,2.4,B4
